From patent US20210302429

What was measured:
unmodified H1.0 peptide = test system: T1, unmodified H1.0 peptide
T1 sequence: AKPVKASKPKKAKPVKPK

H1.0K180me2 peptide = test system: T2, H1.0K180me2 peptide
T2 sequence: AKPVKASKPKKAKPVKPK

[1] = test system: full length human H1.0 protein

G9A methyltransferase
estimated methylation efficiency, LC-MS (unmodified H1.0 peptide): an estimated methylation efficiency of about 99%
in vitro methylation with tritium-labeled methyl donor, gel autoradiography (unmodified H1.0 peptide): The appearance of a band at 4 kDa shows that The G9A methyltransferase capable of methylating H1.0 peptide
peptides dimethylated at K180, LC-MS spectral counts (unmodified H1.0 peptide): 99.9% of all peptides
further methylated peptide H1.0K166me1K180me2, LC-MS (H1.0K180me2 peptide): 1.27% of the total peptide in the reaction
further methylated peptide H1.0K174me1K180me3, LC-MS (H1.0K180me2 peptide): 1.06% of the total peptide in the reaction
further methylated peptide H1.0K174me3K175me3K177me1K180me2, LC-MS (H1.0K180me2 peptide): 0.35% of the total peptide in the reaction
peptides further methylated, LC-MS (H1.0K180me2 peptide): only 2.64% of peptides are further methylated
in vitro methylation assay with increasing amounts of G9A [1]: G9A is capable of dimethylating full length H1.0 at K180
sites of methylation, LC-MS [1]: G9A methylates C-terminal lysine residues, including H1.0K180me2

GLP methyltransferase
peptides dimethylated at K180, LC-MS spectral counts (unmodified H1.0 peptide): 96.6% of all peptides
peptides further methylated, LC-MS (H1.0K180me2 peptide): 1.02% of peptides are further methylated
sites of methylation, LC-MS [1]: GLP methylates a large number of lysine residues on the C-terminal tail of H1.0, lacking the specificity of G9A
